Experimental data as given in publication PMC3785714 (Biochemical Society transactions, 2012).

Target: the molecule itself

B1: p150CC1 (residues 221-509) of dynactin p150Glued (domain or fragment, UniProt P13496 221-509, looked up)
chain: ALLEAQKTSAELQAQLADLTEKLETLKQRRNEDKERLREFDKMKIQFEQLQEFRTKIMGAQASLQKELLRAKQEAKDAIEAKEQHAQEMADLADNVEMITLDKEMAEEKADTLQLELESSKERIEELEVDLELLRSEMQNKAESAIGNISGGGDSPGLSTYEFKQLEQQNIRLKETLVRLRDLSAHDKHDIQKLSKELEMKRSEVTELERTKEKLSAKIDELEAIVADLQEQVDAALGAEEMVEQLAEKKMELEDKVKLLEEEIAQLEALEEVHEQLVESNHELELDLR
stoichiometry N: 2
